No end group written: not given here.
Assays:
[1] = Circular dichroism of the peptide (alpha-helical content); format: physicochemical
Protocol: FIG. 3 depicts circular dichroism of peptide 1 at 21 μM at pH 8 in Tris buffer.
The self-assembly of molecules 1 and 2 into mushroom-shaped nanostructures by coiled-coil formation is an aspect of the disclosure. The self-assembly of the block copolymer 1 was characterized under physiological conditions to probe its propensity to generate […] coiled-coils aggregates.

[2] = Sedimentation equilibrium analytical ultracentrifugation; format: physicochemical; set-up: partial specific volume: unit not given here
Protocol: The coiled-coil formation was then investigated further by analytical ultracentrifugation, which gives access to the absolute molecular weight of the aggregates in solution and subsequently their aggregation number. Equilibrium experiments were conducted at 23° C. and in 50 mM phosphate buffer containing 150 mM NaCl, pH 7.4. Three loading concentrations (18, 30 and 42 μM) were scanned at 230 nm, and sedimented to equilibrium at 20 krpm, 26.6 krpm, 33.3 krpm, and at 39.9 krpm, resulting in 12 scans which were globally fit to multiple models as described previously [Johnson et al., Biophys. J. 36(3): 575-588 (1981); Demeler et al., UltraScan A Comprehensive Data Analysis Software Package for Analytical Ultracentrifugation Experiments. Analytical Ultracentrifugation—Techniques and Methods. Royal Society of Chemistry: 2005]. The most appropriate model was chosen based on visual inspection of the residual run patterns and based on the best statistics. Statistics were evaluated with the Monte Carlo analysis implemented in UltraScan [Demeler et al., Colloid & Polymer Science 286(2): 129-137 (2008)].
A good fit was obtained when all scans were fitted globally to a single ideal species model (RMSD=7.3631e-03, see FIG. 4). A fixed molecular weight distribution model with 100 molecular weight slots between 10,000 and 50,000 Dalton provided slightly better statistics (RMSD=4.6435e-03) because of the additional degrees of freedom.
This molecular weight was consistent with a hexameric assembly of 1. […] Since both sedimentation velocity and sedimentation equilibrium experiments only measure the buoyant molecular weight of the sample, errors can be introduced when the partial specific volume is in error. The partial specific volume of 1 was not determined in an independent measurement, but it is reasonable to assume that due to the presence of the PEG2000 chain, the partial specific volume is actually higher than was estimated. The partial specific volume was therefore also fitted using the single species ideal equilibrium model, holding the molecular weight fixed at the theoretical estimate of 39,921 Daltons and determined a partial specific volume of […], which is reasonable considering the presence of the PEG2000 chain.

[3] = Sedimentation velocity analytical ultracentrifugation; format: physicochemical
Protocol: Sedimentation velocity experiments were conducted in the same buffer as the equilibrium experiments. Velocity experiments were performed at 50 krpm and 23° C., scans were taken at 230 nm in intensity mode. The data were analyzed with the 2-dimensional spectrum analysis (2DSA) [Brookes et al., European Biophysics Journal 39(3): 405-414 (2010)] and time invariant noise was subtracted. 2DSA results were further refined with the genetic algorithm analysis (GA) [Brookes et al., Proceedings of the 9th annual conference on Genetic and evolutionary computation 361-368 (2007)] coupled with Monte Carlo (MC) analysis [Demeler et al., UltraScan A Comprehensive Data Analysis Software Package for Analytical Ultracentrifugation Experiments. Analytical Ultracentrifugation—Techniques and Methods. Royal Society of Chemistry: 2005]. Sedimentation coefficient distributions were calculated with the van Holde-Weischet analysis [Demeler et al., Anal. Biochem. 335(2): 279-288 (2004)].
Weight-average sedimentation coefficients determined with the 2DSA-MC and the GA-MC analysis were both 2.26 s.

1200 bp DNA fragment = assay: Agarose gel shift assay of DNA binding; conditions: for peptide concentration at which no free DNA can be detected: 200 ng DNA in 20 μl; for peptide molecules for one molecule of DNA at full binding / peptides per base pair at full binding: at 20 μM peptide
Protocol: FIG. 6 depicts agarose gel electrophoresis of complexes of 2 and a 1200 bp DNA fragment. Each sample was prepared in a volume of 20 μl Well 1: 200 ng of 1200 bp DNA fragment; Well 2—10: 200 ng of 1200 bp DNA fragment+2 at a concentration of 2.5-5-7.5-10-15-20-25-35-45 μM.
The ability of compounds 1 and 2 to bind to nucleic acids was assayed by agarose gel shift assays where DNA was mixed with peptides 1 and 2 in different ratio. (FIG. 6). According to these studies at a peptide concentration of 20 μM, no free DNA can be detected in the sample. This corresponds to a ratio of approximately 1600 peptide molecules for one molecule of DNA, or 1.3 peptides per base pair.

[4] = system: plasmid pBR322 DNA template; assay: TEM of peptide-plasmid DNA complexes; format: physicochemical; conditions: peptide 80 μM, plasmid 200 ng in 20 μl 25 mM Tris buffer pH 7.4
Protocol: A Complex between 3 (80 μM) and plasmid pbr322 (200 ng) in 20 μl of 25 mM Tris buffer (pH 7.4, 25 mM) B Complex between 1 (80 μM) and plasmid pbr322 (200 ng) in 20 μl of 25 mM Tris buffer (pH 7.4, 25 mM) C Complex between 2 (80 μM) and plasmid pbr322 (200 ng) in 20 μl of 25 mM Tris buffer (pH 7.4, 25 mM).
(§1) Complexes between nucleic acid templates and molecules 1, 2 and 3 were prepared under conditions where no more free DNA could be detected by gel electrophoresis and analyzed by transmission electron microscopy (TEM).

[5] = system: double strand DNA fragments; assay: TEM of peptide-linear double strand DNA fragment complexes; format: physicochemical; conditions: for morphology of complexes with short DNA fragments: short ds DNA fragments (150, 300 bp); for morphology of complexes with DNA fragments above 300 bp: template length above 300 bp (600, 1200 bp)
Protocol: A Complex between 1 (80 μM) and ds 150 bp DNA fragment (200 ng) in 20 μl of 25 mM Tris buffer (pH 7.4, 25 mM) B Complex between 2 (80 μM) and ds 150 bp fragment (200 ng) in 20 μl of 25 mM Tris buffer (pH 7.4, 25 mM) C Complex between 1 (80 μM) and ds 300 bp DNA fragment (200 ng) in 20 μl of 25 mM Tris buffer (pH 7.4, 25 mM) D Complex between 2 (80 μM) and ds 300 bp fragment (200 ng) in 20 μl of 25 mM Tris buffer (pH 7.4, 25 mM).
A Complex between 1 (80 μM) and ds 600 bp DNA fragment (200 ng) in 20 μl of 25 mM Tris buffer (pH 7.4, 25 mM) B Complex between 2 (80 μM) and ds 600 bp fragment (200 ng) in 20 μl of 25 mM Tris buffer (pH 7.4, 25 mM) C Complex between 1 (80 μM) and ds 1200 bp DNA fragment (200 ng) in 20 μl of 25 mM Tris buffer (pH 7.4, 25 mM) D Complex between 2 (80 μM) and ds 1200 bp fragment (200 ng) in 20 μl of 25 mM Tris buffer (pH 7.4, 25 mM).
as §1
The toroid proportion is insignificant as they are difficult to observe. Furthermore, the length of the complexes was homogenous, and around 706 nm in average. The calculated length of the PBR322 plasmid in a supercoiled conformation is 737 nm, very close to the observed dimensions. A slight shortening of the complexes can be explained by the contraction of DNA in the presence of multivalent counterions. Complexes of short double strand DNA fragments (25-1200 bp) have also been prepared and observed by TEM. (FIG. 8). The expected control of the dimensions of the complexes by template effect clearly obeys different regimes depending both of the length of the template and design of the artificial capsomers.

nucleic acid = conditions: physiological nucleic acid ligand; cited from earlier work
[6] = fixed molecular weight distribution model, Monte Carlo analysis

Molecule | alpha-helical content ([1]; before addition of DNA, 21 μM, pH 8, Tris buffer) [%] | alpha-helical content ([1]; upon addition of DNA) [%] | molecular weight of the species in solution, single ideal species fit ([2]; 23° C., 50 mM phosphate buffer, 150 mM NaCl, pH 7.4, 18, 30 and 42 μM) [kDa] | oligomeric state in solution ([2]; concentrations between 18 and 42 μM) | partial specific volume ([2]; fitted with single species ideal equilibrium model, molecular weight fixed at 39,921 Daltons) | Z-average molecular weight [2, 6] [kDa] | number-average molecular weight [2, 6] [kDa] | weight-average molecular weight [2, 6] [kDa] | weight-average sedimentation coefficient ([3]; 2DSA-MC and GA-MC analysis) [s] | frictional ratio ([3]; GA-MC analysis) | molecular weight of single species (94% of the signal) ([3]; GA-MC analysis) [kDa] | weight-average sedimentation coefficient ([3]; van Holde-Weischet analysis, 50 krpm, 23° C.) [s] | peptide concentration at which no free DNA can be detected (1200 bp DNA fragment) [µM] | peptide molecules for one molecule of DNA at full binding (1200 bp DNA fragment) | peptides per base pair at full binding (1200 bp DNA fragment) | morphology of complexes with plasmid pBR322 [4] | morphology of complexes with short DNA fragments [5] | morphology of complexes with DNA fragments above 300 bp [5] | average length of complexes with plasmid pBR322 [4] | binding constant to nucleic acid (nucleic acid)
peptide 1: Coiled-coil peptide (SEQ ID NO: 1) with C-terminal lysine-linked spermine DNA binding unit and PEG2000 carboxylic acid coupled to N-terminus ({PEG2000 carboxylic acid}-REGVAKALRAVANALHYNASALEEVADALQKVKM; not fully specified (C-terminus)) | 36 | 53 | 33.38 | hexamer or heptameric oligomer | 0.809 | 36.28 | 32.34 | 34.67 | 2.26 | 1.370 | 33.74 | 2.28 | 20 | approximately 1600 | 1.3 | mixture of rods, branched and toroidal complexes | rodlike morphology and having predominantly the length of the DNA template | mixture of the expected filamentous complexes of different length and toroidal complexes | – | –
2: Coiled-coil peptide (SEQ ID NO: 1) with spermine unit and mPEG5000-maleimide conjugated to an N-terminal cysteine residue ({C(mPEG5000-maleimide)}-REGVAKALRAVANALHYNASALEEVADALQKVKM; also: spermine unit, site not given here) [compound 2] | – | – | – | – | – | – | – | – | – | – | – | – | 20 | approximately 1600 | 1.3 | only filamentous complexes were observed | rodlike morphology and having predominantly the length of the DNA template | homogenous rods having predominantly a length corresponding to the DNA template folded in two | around 706 nm | –
NCCCNCCCCNCCCN [spermine] | – | – | – | – | – | – | – | – | – | – | – | – | – | – | – | – | – | – | – | micromolar range
